41 sequences from the nanobody polyreactivity screen of Harvey et al. (2022) can be followed below.

The data set can be described thus: yeast display, Sf9 membrane polyspecificity reagent, FACS + sequencing; frameworks hold sequencing errors. The procedure, abridged: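 In a synthetic yeast display library (Saccharomyces cerevisiae BJ5465), nanobody expression was induced with galactose for 36–48 hours. FACS gates were set low and high (top ~1%) using anti-HA fluorescence for expression and streptavidin fluorescence for binding of the Sf9 membrane reagent. Each polyreactivity label is drawn from the gate of origin.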
“QVQLVESGGGLVQAGGSLRLSCAASGFTFIRSAMGWYRQAPGKGRELVAAITVSGTRTYYADSVKGRFTISRDNAKNTVYLQMNSLKPEDTAVYYCNARDVYTGYGMGYWGQGTQVTVSS”: the “polyreactivity (PSR sort gate)” value is reported as “high polyreactivity”. Next, “QVQLVESGGGLVQAGGSLRLSCAASGFTFIRYAMGWYRQAPGKERELVATITRRGGSTYYADSVTGRFTISRDNAKNTVYFQMNSLKPEDTAVYDCNRDYVTYGQYYYWGQGTQVTVSS”: “high polyreactivity”; “QVQLVESGGGLVQAGGSLRLSCAASGFTFIRYARGWYRPAPGKERELVAAIRGTGTSTYYADSVKGRFTISRDNAKNTVYLQMNSLKPEDTAVDYCNTVAGRSPYTRYDYWGQGTQVTVSS”: “low polyreactivity”.

Consider “QVQLVESGGGLVQAGGSLRLSCAASGFTFISYAMGWYRQAPGKERELVAVINQRGGRTYYADSVKGRFTISRDNAKNTVYLQMNSLKPEDTAVYYCATRLKSVSGGYNYWGQGTQVTVSS”, for which the “polyreactivity (PSR sort gate)” value is listed as “high polyreactivity”. For “QVQLVESGGGLVQAGGSLRLSCAASGFTFITNAMGWYRQAPGKERELVASISIGGSTNYADSVKGRFTISRDNAKNTVYLQMNSLKPEDTAVYYCAARVYRRLFLPGRYGRPLGYWGQGTQVTVSS” the value was “high polyreactivity”; for “QVQLVESGGGLVQAGGSLRLSCAASGFTFIYNAMGWYRQAPGKERELVAAISRGASTNYADSVKGRFTISRDNAKNTVYLQMNSLKPEDTAVYYCAKRTTRLAPYDYWGQGTQVTVSS”, “high polyreactivity”. For “QVQLVESGGGLVQAGGSLRLSCAASGFTFIYYAMGWYRQAPGKERELVAAISSRTGRTYYADSVKGRFTISRDNAKNTVYLQMNSLKPEDTAVYYCNADRNWRSGKFNYWGQGTQVTVSS” the value was “high polyreactivity”. As for “QVQLVESGGGLVQAGGSLRLSCAASGFTFIYYAMGWYRQARGKERELVAAISRGDSTYYADSVKGRFTISRDNAKNTVYLQMISLKPEDTAVYYCAAASHVRRDHGYWGEGTQVTVSS”, the “polyreactivity (PSR sort gate)” value is listed as “low polyreactivity”.

Take “QVQLVESGGGLVQAGGSLRLSCAASGFTFKFNAMGWYRQAPGKEREFVAAISYSGGSTYYADSVKGRFTISRDNAKNTVYLQMNSVKPEDTAVYYCAARAYWYGASYYYWGQGTQVTVSS”: the “polyreactivity (PSR sort gate)” value is given as “high polyreactivity”. On to “QVQLVESGGGLVQAGGSLRLSCAASGFTFKFYAMGWYRPAPGKERELVAAISSGGASTYYADSVKGRFTISRDNAKNTVYLQMNSLKPEDTAVYYFAARSGGPSDGSGYWGQGTEVTVSS”, for which the “polyreactivity (PSR sort gate)” value is “low polyreactivity”. “QVQLVESGGGLVQAGGSLRLSCAASGFTFKFYAMGWYRQAPGKERELVAAISWSGGSTYYADSVKGRFTISRDNAKNTVYLQMNSLKPEDTAVYYFAKRGGRQTYYYWGLGTQVTVSS”: the “polyreactivity (PSR sort gate)” value is given as “high polyreactivity”. For “QVQLVESGGGLVQAGGSLRLSCAASGFTFKGNAMGWYRQAPGKERELVATITQSAGSTYYADSVKGRFTISRDNAKNTVYLQMNSLKPEDTAVYYCNADPITLYYYSWYNYWGQGTQVTVSS” the value was “low polyreactivity”; for “QVQLVESGGGLVQAGGSLRLSCAASGFTFKGNTMGWYRQAPGKERELVANITRGGTTYYADSVKGRFTISRDNAKNTVYLQMNSLKPEDTAVYYCAARNWPSRGYNYWGQGTQVTVSS”, “high polyreactivity”; for “QVQLVESGGGLVQAGGSLRLSCAASGFTFKLYAMGWYRQAPGKERELVAVITTSGGRTYYADSVKGRFTISRDNANNTVYLQMTSLKPEDTAVYYCAKVVFVRVAPGYYWGQGTQVTVSS”, “high polyreactivity”. Consider “QVQLVESGGGLVQAGGSLRLSCAASGFTFKSNAMGGYRQAPGKEREKVAAIDSRGDRTYYADSVKGRFTISRDNAKNTVYLQMNSLKPEDTAVYYCATKWRTYWSSGEYWGQGTQVTVSS”, for which the “polyreactivity (PSR sort gate)” value is on record as “high polyreactivity”. For “QVQLVESGGGLVQAGGSLRLSCAASGFTFKSYAMGWYRQAPGKERELVAAINRSGGSTYYADSVKGRFTISRDNAKNTVYLQMNSLKPEDTAVYYCAAVKPPDYYYWGQGTQVTVSS” the value was “high polyreactivity”. Consider “QVQLVESGGGLVQAGGSLRLSCAASGFTFKTNARGWYRQAPVTERELVAAITGSGSSTYYADSVKGRFTISRDNAKNTVYLQMNSLKPEDTAVYYCAASRVYKYYWGQGTEVTVSS”, for which the “polyreactivity (PSR sort gate)” value was “high polyreactivity”. For “QVQLVESGGGLVQAGGSLRLSCAASGFTFKTYAMGSYRPAPGKEREFVAAISSRGGSTYYSDSVKGRFTISRDNAKNTVYLQMHSLKPEDTAVYYCATATRPRDRYSRYGYWGQGTQVTVSS” the value was “high polyreactivity”. For “QVQLVESGGGLVQAGGSLRLSCAASGFTFKTYAMGWYRQAPGKEREFVAAISSRGGSTYYADSVKGRFTISRDNAKNTVYLQMNSLKPEDTAVYYCATATRPRDRYSRYGYWGQGTQVTVSS” the value was “high polyreactivity”; for “QVQLVESGGGLVQAGGSLRLSCAASGFTFKTYVMGWYRQAPGKERELVAAISRRGGSTHYADSVKGRFTISRDNAKNTVYLQMNSLKPEVTAVYYCAARHPFAGTVWGVVSYDYWGQGTLVTVSS”, “high polyreactivity”. Next, “QVQLVESGGGLVQAGGSLRLSCAASGFTFKWYTRGWYRQAPGKERELVAAISTRGGSTYYADSVKGRFTISRDNAKNTVYLQMNSLKPEDTAVYYCAAVYRRGSGYDYWGQGTQVTVSS”: “high polyreactivity”; “QVQLVESGGGLVQAGGSLRLSCAASGFTFKYKAMGWYRQAPGKERELVAVISSSGGRTYYADSVKGRFTISRDNAKNTVYLQMNSLKPEDTAVYYCAADTFVWADWSWHYYWRQGTQVTVSS”: “high polyreactivity”; “QVQLVESGGGLVQAGGSLRLSCAASGFTFKYYAMGWYRQAPGKERELVAAIRRSAGSTNYADSVKGRFTISRDNAKNTVYLQMNSLKPEDTAVYYCNTVGTRQPMDYWGQGTQVTVSS”: “high polyreactivity”. As for “QVQLVESGGGLVQAGGSLRLSCAASGFTFKYYAMGWYRQAPGKERELVAAISSGVSTNYADSVKGRFTISRDNAKNTVYLQMNSLKPEDTAVYYCNAEVFWWDQWYDYWGQGTQVTVSS”, the “polyreactivity (PSR sort gate)” value is recorded as “high polyreactivity”. For “QVQLVESGGGLVQAGGSLRLSCAASGFTFKYYAMGWYRQAPGKERELVASISYSGGRTSYADSVKGRFTISRDNAKNTVYLQMNSLKPEDTAVYYCNADVRRIDYKSRQYDYWGQGTQVTVSS”, the “polyreactivity (PSR sort gate)” value was “high polyreactivity”. On to “QVQLVESGGGLVQAGGSLRLSCAASGFTFKYYAMGWYRQAPGKERELVAVINQSGGSTSYADSVKGRFTISRDNAKNTVYLQMNSLKPEDTAVYYCAALVGLFWLWNYDYWGQGTQVTVSS”, for which the “polyreactivity (PSR sort gate)” value is reported as “high polyreactivity”. For “QVQLVESGGGLVQAGGSLRLSCAASGFTFKYYAMGWYRQAPGKERELVAVISSSGGSTYYADSVKGRFTISRDNAKNTVYLQMNSLKPEDTAVYYCNTDAYWHRQQYDYWGQGTQVTVSS” the value was “low polyreactivity”. As to “QVQLVESGGGLVQAGGSLRLSCAASGFTFKYYVKGWYRQAPGKERELVAAISSNGGTTYYADSVKGRFTISRDNAKNTVYVQMNSLKPEDTAVYYCAAEPGQEYVVGYSYWGQGSQVTVSS”, the “polyreactivity (PSR sort gate)” value is given as “high polyreactivity”. Next, “QVQLVESGGGLVQAGGSLRLSCAASGFTFLKYAMGGYRQAPGKERDLVARITSGGRTYYADSVKGRFTISRDNAKNTVYLQMNSLKPEDTAVYYCNAVKSYASLYAVFYDWGQGTQVTVSS”: “high polyreactivity”; “QVQLVESGGGLVQAGGSLRLSCAASGFTFLKYAMGWYRQAPGKERELVAAISWSGGRTFYADSVKGRFTISRDNAKNTVYLQMISLKPEDTAVYYCATRTRGSVYRFDYWGQGTQVTVSS”: “high polyreactivity”. “QVQLVESGGGLVQAGGSLRLSCAASGFTFLRYAMGWYRQAPGKERELVAAITGSGGSTYYADSVKGRFTISRDNAKNTVYLQMNSLKPEDTAVYYCSIVSKFTGDYGYWGQGTQVTVSS”: the “polyreactivity (PSR sort gate)” value is given as “high polyreactivity”.

On to “QVQLVESGGGLVQAGGSLRLSCAASGFTFLSNDMGWYRQSPGKERELVAGINFSGDGTYYADSVKGRFTISRDNAKNPVYLQMNSLKPEDSAVYYCAAGWLPKYGYWGKGTQVTVSS”, for which the “polyreactivity (PSR sort gate)” value is reported as “low polyreactivity”. Next, “QVQLVESGGGLVQAGGSLRLSCAASGFTFLTNAMGWYRQAPGKERELVAAISSGGNTNYADSVKGRFTISRDNAKNTVYLQMNSLKPEDTAVYYCAADNDYLSSQVSYDYWGQGTQVTVSS”: “low polyreactivity”; “QVQLVESGGGLVQAGGSLRLSCAASGFTFLVNAMGWYRQAPGKERELVAAISSGGSTYYADSVKGRFTISRDNAKNTVYLQMNSLKPEDTAVYYCAAPTDFLFWEFDYWGQCTQVTVSS”: “low polyreactivity”. In the case of “QVQLVESGGGLVQAGGSLRLSCAASGFTFLVYAMGWYRQAPGKERELVAAISRRGCSTYYADSVKGRFTISRDNAKNTVYLQMNSLKPEDTSVYYCNKYRQQGWEFDYWGQGTQVTVSS”, the “polyreactivity (PSR sort gate)” value is “high polyreactivity”. For “QVQLVESGGGLVQAGGSLRLSCAASGFTFLYGMGWYRQAPGEERELVAAISNTGGSTYYADSVKGRFTISRDNAKNTVYLQMNSLKPEDTAVYYCAADGGQWWVFYALDFWGQGTQVTVSS” the value was “low polyreactivity”; for “QVQLVESGGGLVQAGGSLRLSCAASGFTFLYYAMGWYRPAPGKERELVAAISASSDRTYYADSVKGRFTISRDNAKNTVYLQMNSLKPEDTAVYYCAAYNSRVGGYRGYGYWGQGTQVTVSS”, “high polyreactivity”; for “QVQLVESGGGLVQAGGSLRLSCAASGFTFLYYDMGWYRQAPGKERELVAAITNDDSTYYADSVKGRFTISRDNAKNTVYLQMNSLKPEDTAVYYCNADVWYYTPYDYWGQVTQVTVSS”, “high polyreactivity”. Next, “QVQLVESGGGLVQAGGSLRLSCAASGFTFNDNAMGWYRQAPGKERELVAAITYGGSTYYADSVKGRFTISRDNAKNTVYLQMNSLKPEDTAVYYCARDLSAGPGRDYWGQGTQVTVSS”: “low polyreactivity”; “QVQLVESGGGLVQAGGSLRLSCAASGFTFNKYAMGCYRQAPGKERELVAAISGSGGRTYYADSVKGRFTISRDNAKNTVYLQMNSLKPEDTAVYYCAAQRSVKVDYWGQGTQVTVSS”: “high polyreactivity”; “QVQLVESGGGLVQAGGSLRLSCAASGFTFNNNAMGWYRQAPGKERELVAAISSSGGNTYYADSVKGRFTISRDNAKNTVYLQMNSLKPEDTAVYYCNAGKRQRGEYWGQGTQVTVSS”: “high polyreactivity”.
